Data reported in PMC9287160.

Target: αMβ2 expressed on K562 cells (human) (UniProt P11215)
Assay: flow cytometry on cells; αMβ2/K562 cells, 45 min with 10 μg/ml Alexa Fluor 488-iC3b and 0, 1, 5 or 10 μg/ml hCD11bNb1; 1 mM Ca2+ and 1 mM Mg2+, with or without 1 mM Mn2+

fold increase of iC3b* binding in the presence of hCD11bNb1 against none: 2 fold
Substance: Alexa Fluor 488-conjugated iC3b (from UniProt P01024 23-667; P01024 1321-1663) (ligand)
